According to PMC12344693, “Human Milk Oligosaccharides Multivalently Presented on Defined Synthetic Neo-Glycoproteins Are Nanomolar Ligands of Tandem-Repeat Galectins” (Biomacromolecules, 2025):

T1: Asialofetuin (UniProt P12763 19-359, asialo form (glycans without sialic acid), by its name only)
T1 construct: asialofetuin (desialylated fetuin); neither source nor species is stated; It is coated on the ELISA plate (0.1 µM in PBS); also called ASF
T1 sequence (looked up): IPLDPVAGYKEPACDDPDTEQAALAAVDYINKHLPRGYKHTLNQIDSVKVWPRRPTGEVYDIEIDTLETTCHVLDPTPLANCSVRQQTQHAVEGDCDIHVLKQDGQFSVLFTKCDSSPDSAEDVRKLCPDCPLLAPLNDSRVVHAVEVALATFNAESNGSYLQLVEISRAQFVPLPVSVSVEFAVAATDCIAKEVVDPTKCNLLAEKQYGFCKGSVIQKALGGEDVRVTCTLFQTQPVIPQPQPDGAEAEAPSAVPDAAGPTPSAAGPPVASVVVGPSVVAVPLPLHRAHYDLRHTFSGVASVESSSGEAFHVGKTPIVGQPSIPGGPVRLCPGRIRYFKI

B1: Gal-9-AVI-link (monobiotinylated full-length galectin-9) (natural protein, human, UniProt O00182 1-355, looked up)
chain: MAFSGSQAPYLSPAVPFSGTIQGGLQDGLQITVNGTVLSSSGTRFAVNFQTGFSGNDIAFHFNPRFEDGGYVVCNTRQNGSWGPEERKTHMPFQKGMPFDLCFLVQSSDFKVMVNGILFVQYFHRVPFHRVDTISVNGSVQLSYISFQNPRTVPVQPAFSTVPFSQPVCFPPRPRGRRQKPPGVWPANPAPITQTVIHTVQSAPGQMFSTPAIPPMMYPHPAYPMPFITTILGGLYPSKSILLSGTVLPSAQRFHINLCSGNHIAFHLNPRFDENAVVRNTQIDNSWGSEERSLPRKMPFVRGQSFSVWILCEAHCLKVAVDGQHLFEYYHRLRNLPTINRLEVGGDIQLTHVQT
modifications: biotin on the single lysine of the AVI-tag (…)
notes: human galectin-9 (Gal-9), both CRDs with the linker peptide; prepared as described previously; source: E. coli BL21(λDE3) cotransformed with the birA gene (biotin ligase), biotinylated in vivo; see Supporting Information, Section 6; not shown: (GGS)5 linker between AVI-tag and galectin, N-terminal, kept
B2: Gal-4-AVI-link (natural protein, human, UniProt P56470 1-323, looked up)
chain: MAYVPAPGYQPTYNPTLPYYQPIPGGLNVGMSVYIQGVASEHMKRFFVNFVVGQDPGSDVAFHFNPRFDGWDKVVFNTLQGGKWGSEERKRSMPFKKGAAFELVFIVLAEHYKVVVNGNPFYEYGHRLPLQMVTHLQVDGDLQLQSINFIGGQPLRPQGPPMMPPYPGPGHCHQQLNSLPTMEGPPTFNPPVPYFGRLQGGLTARRTIIIKGYVPPTGKSFAINFKVGSSGDIALHINPRMGNGTVVRNSLLNGSWGSEEKKITHNPFGPGQFFDLSIRCGLDRFKVYANGQHLFDFAHRLSAFQRVDTLEIQGDVTLSYVQI
modifications: biotin on the single lysine of the AVI-tag
notes: human galectin-4, full-length tandem-repeat galectin with the native full-length peptide linker of 28 aa (2979 Da); synthetic gene (Biocat) in pET-Duet1; also called Gal-4 (AVI-tag); source: E. coli BL21(λDE3) co-expressing biotin ligase BirA, purified (Ni-NTA); not shown: His6, N-terminal, kept

What was measured:
[1] = target: T2, neo-glycoprotein NGP5 (LN2-Lac-HSA) (human, UniProt P02768 25-609, LN2-Lac (Galβ4GlcNAcβ3Galβ4Glc) on an ethylthioureidyl linker, coupled through squaric acid to lysine residues; approximately 5 to 9 glycans per HSA molecule (number in Table S7); positions not stated); test: BLI; biotinylated galectin constructs (2 μg/mL in PBS, 0.05% Tween-20) immobilised on streptavidin biosensors; neo-glycoproteins 1.56-100 nM in solution; 25 °C, 850 rpm; association 450 s, dissociation 600 s; Langmuir 1:1 kinetic model; conditions: both partners purified
T2 construct: human serum albumin (HSA), carrier protein of the neo-glycoprotein; source: washed with water by ultracentrifugation

Asialofetuin = target: T1, Asialofetuin; test: ELISA; direct ELISA: ASF immobilised on microtiter plates, serial dilution of the galectin in EPBS (PBS with 2 mM EDTA, 50 µL/well); otherwise as the competitive ELISA (anti-His-tag-HRP detection); conditions: both partners purified

| Binder | Kd [1] [nM] | Kd (Asialofetuin) [nM] |
| --- | --- | --- |
| B1 | 0.05 ± 0.01 |  |
| B2 |  | 2300 ± 800 |
